Tested on: hippocampal proteins
Assay: DIA quantification proteomics, hippocampus of Mdga2+/- vs WT mice
Set-up: species or system mouse
Conditions: S3 Table, downregulated DEPs; for log2FC: Mdga2+/- vs WT mouse hippocampus (HET-HIP-VS-WT-HIP), SE, pvalue and adj_pvalue in own columns c3-c5; for Class: regulation class of the protein, HET-HIP-VS-WT-HIP
In short: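 Hippocampi from 1.5–2-month-old male Mdga2+/− mice and WT littermates; 100 μg protein trypsin-digested, peptides high-pH fractionated. DDA-built spectral library, DIA by nano-LC–MS/MS with Spectronaut and mProphet QC. DEPs called at fold change >1.1 and p <0.05.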

| Molecule | log2FC | Class |
| --- | --- | --- |
| sp¦P28076¦PSB9_MOUSE (protein, UniProt P28076 21-219, looked up) Proteasome subunit beta type-9: TTIMAVEFDGGVVVGSDSRVSAGTAVVNRVFDKLSPLHQRIFCALSGSAADAQAIADMAAYQLELHGLELEEPPLVLAAANVVKNISYKYREDLLAHLIVAGWDQREGGQVYGTMGGMLIRQPFTIGGSGSSYIYGYVDAAYKPGMTPEECRRFTTNAITLAMNRDGSSGGVIYLVTITAAGVDHRVILGDELPKFYDE | -1.875 | Down |
| sp¦P43135¦COT2_MOUSE (protein, UniProt P43135 1-414, looked up) COUP transcription factor 2: MAMVVSTWRDPQDEVPGSQGSQASQAPPVPGPPPGAPHTPQTPGQGGPASTPAQTAAGGQGGPGGPGSDKQQQQQHIECVVCGDKSSGKHYGQFTCEGCKSFFKRSVRRNLSYTCRANRNCPIDQHHRNQCQYCRLKKCLKVGMRREAVQRGRMPPTQPTHGQFALTNGDPLNCHSYLSGYISLLLRAEPYPTSRFGSQCMQPNNIMGIENICELAARMLFSAVEWARNIPFFPDLQITDQVALLRLTWSELFVLNAAQCSMPLHVAPLLAAAGLHASPMSADRVVAFMDHIRIFQEQVEKLKALHVDSAEYSCLKAIVLFTSDACGLSDVAHVESLQEKSQCALEEYVRSQYPNQPTRFGKLLLRLPSLRTVSSSVIEQLFFVRLVGKTPIETLIRDMLLSGSSFNWPYMAIQ | -1.636 | Down |
| sp¦Q9D7X1¦KCTD4_MOUSE (protein, UniProt Q9D7X1 1-259, looked up) BTB/POZ domain-containing …: MERKIIRREKEREYEGRHNSVEDAEQGKNCKSTLMTLNVGGYLYITQKQTLTKYPDTFLEGIVNGKILCPFDADGHYFIDRDGLLFRHVLNFLRNGELLLPEGFRENQLLAQEAEFFQLKGLAEEVKSRWEKEQLTPRETTFLEITDNHDRSQGLRIFCNAPDFISKIKSRIVLVSKSRLDGFPEEFSVSSNIIQFKYFIKSENGTRLVLKEDNTFVCTLETLKFEAIMMALKCGFRLLTSLDCSKGSIVHSDALHFIK | -1.758 | Down |
| sp¦Q5PR69¦CRAD_MOUSE (protein, UniProt Q5PR69 1-1291, looked up) Capping protein-inhibiting …: MGARAFSHDSIFIPDGGAESEQTVQAMSQDNILGKVKTLQRQLGKNIKFGQRPSNAIPMKKAGSTDASSEEDFVLTSPMEIVTQQDIVPSDTENKSSDTPSSSSPLNLPEAGSDMEEKVAPVKPSRPKRHLSSAGTIESVNLDAIPLAIARLDNSAARHKLAVKPKNQRVSRKHRWLAQDRQNEPGSFESQSSLDQNGQLGEDKHIWHGEEPEPLESHEEKRLHEEYWRELEAKCKRQKAEAAEKRRQEEQRRQALERRLWEESLRQELLEEEEEGEEEEEVKEEGEEGEEVGLQPRAGKVPPEEGHQSGPEEQRCTEQELGGADDPARLEAEERRREQEEAERQAEKLRQREAERQEEEQKQREAERQEEEARQCEAERQAEKLRQREAERQEEEARQREAERQAEKLRQREAERQEEELRQREEAERQEKLRQRDAESQEEELRQREAERQRAQEEDAKGMLQEEEEEAKRIEELKGKETPEPLVEEGPQSPEGESQPWLTDDADQRSPLQRDLEKPGEREREDLESAGQREIAEEPRGEGEPAEQSGDLDAHCGGVDGEGKETAQTDSPQPQERQMEGTPAPEENEATAADIDRKVEELRWQEVDERQTMPRPYTFQVSSGSRQILFPKVNLSPVTPAKDASLAPAAQEPPAPRGAASHALPSALSIPHTAILVTGAQLCGPAVNLSQIKDTACKSLLGLSEEKRPMDVPTVESRAGSGKSRPAPESPSNAAALAEWASIRSRILKNSEGDQRGDREPARAGDEPVPRARCDSRGNVRRTPPVNAKFSIMPAWQKFSDSGAETFRQSLDGESGRKKPGLAPSEETAPQPHAAAQQEVSQEPPDTTDGCKFAKDLPSFLVPGLPSPQKAASRTESTTTLDSETTSDVGNPDPAMPGGEEKASPFGIKLRRTNYSLRFHCDQQAEQKKKKRHSSTGDSVGGATPATGSVSGESEPEATFLKHGPSLPQERKPALSPRKDSAESHSSGHYVAVAQSGLPPASGQTPAPEQDRAVSKMPSMQKPALAPKPASQTPPSSPLSKLSRPHLVELLARRAGKLDSEPSETAKESSDNQPPSPSLPEELKGQKRDEKDVPEKKPASPPLPAGQQERPSLIPETGRKEKPVLQSRHSLDGSKVTEKVETAQPLWITLALQKQKGFREQQATREERKQAREAKQAEKLSKETVSVSLQPGSSRASKTAPVHKPAAPSEEKKPETAVSRLQRREQLKKSNTLPTSVTVEISDSAPSAALVKDVTKRFSTPDAAPVSTEPAWLALAKRKAKAWSDCPQIIK | -1.882 | Down |
| sp¦Q8BZ60¦STON2_MOUSE (protein, UniProt Q8BZ60 1-895, looked up) Stonin-2: MTTLDHVIATHQSEWVSFSEEPLFPTPLEGGTEEHFPGLSSSSERSESSSGENHVVDEGSQDLSHSEQDDSSEKMGLISEAASPPGSPVQPTPDLASAISNWVQFEDDTPWSSTSPPHKETALTLTMPCWTCPSFDSLRRCPLTSESSWTTHSEDTSSPSVAPSYTDLQLINTEEQASGRASGTDSTDNSSSLQEDEEVEMEAISWWAGSPAMNGHPAAPPVTTARFPSWVTFEDNEVGCPSPPVPSPKKPNTPSAATAAPDVPFNSTGSFKRDRPKSTLMNLPKVQKLDISSLNRPPSVIEAPPWRATNPFLNETLQDVQPSPINPFSAFFEEQERRSQNSSVSSTTGKSQRDSLIVVYQDAISFDDSGKSQPHPDAIEKLKQLQIDDPDPVGNTALPDDDPTASVELDAPSPASALSQPRDGWPMMLRIPEKKNIMSSRHWGPIYIKLTASGYLQLYYEQGLEKPFREFKLEICHEVSEPRLQNYDENGRIHSLRIDRVTYKEKKKYQPKPAVAHAAEREQVIKLGTTNYDDFRSFIHAVQDRLMDLPVLSMDLSTVGLNYLEEEITVDVRDEFSGTVGKGDNQILQHHVLTRIHILSFLSGLAECRLGLNDILIKGNEIVSRQDIMPTTTTKWIKLHECRFHGCVDEDVFNSSRVILFNPLDACRFELMRFRTVFAEKTLPFTLRTAASINGAEVEVQSWLRMSPGFSSNRDPLTQVPCENVMVRYPVPSEWVKNFRRDSVLGEKSLKAKVNRGASFGSAGASGSEPVMRVTLGTAKYEHAFNSIVWRINRLPDKNSASGHPHCFFCHLELGSDREVPSRFANYVNVEFSMPTTSASKAAVRSVSVEDKPDVRKWVNYSAHYSYKVEIEQKKSLKPDFEGEDLENPKECGVQ | -1.549 | Down |
| sp¦Q8BUB4¦WDFY2_MOUSE (protein, UniProt Q8BUB4 1-400, looked up) WD repeat and FYVE …: MAAEIQPQPLTRKPILLQRVEGSQEVVNMAVIVPKEEGVISVSEDRTVRVWLKRDSGQYWPSIYHAMPSPCSCMSFNPETRRLSIGLDNGTISEFILSEDYNKMTPVKNYQAHQSRVTMVLFVLELEWVLSTGQDKQFAWHCSESGQRLGGYRTSAVASGLQFDVETRHVFIGDHSGQVTILKLEQENCTLLTSFRGHTGGVTALCWDPVQRVLFSGSSDHSVIMWDIGGRKGTAIELQGHNDKVQALSYAQHTRQLISCGGDGGIVVWNMDVERQETPEWLDSDSCQKCDQPFFWNFKQMWDSKKIGLRQHHCRKCGKAVCGKCSSKRSSIPLMGFEFEVRVCDSCHEAITDEERAPTATFHDSKHNIVHVHFDATRGWLLTSGTDKVIKLWDMTPVVS | -1.823 | Down |
| sp¦O54983¦CRYM_MOUSE (protein, UniProt O54983 1-313, looked up) Ketimine reductase …: MKRAPAFLSAEEVQDHLRSSSLLIPPLEAALANFSKGPDGGVMQPVRTVVPVAKHRGFLGVMPAYSAAEDALTTKLVTFYEGHSNTAVPSHQASVLLFDPSNGSLLAVMDGNVITAKRTAAVSAIATKLLKPPGSDVLCILGAGVQAYSHYEIFTEQFSFKEVRMWNRTRENAEKFASTVQGDVRVCSSVQEAVTGADVIITVTMATEPILFGEWVKPGAHINAVGASRPDWRELDDELMRQAVLYVDSREAALKESGDVLLSGADIFAELGEVISGAKPAHCEKTTVFKSLGMAVEDLVAAKLVYDSWSSGK | -1.898 | Down |
| sp¦Q3TVI8¦PBIP1_MOUSE (protein, UniProt Q3TVI8 1-727, looked up) Pre-B-cell leukemia …: MASCPDSDNSWVLAGSENLPVETLGPEPRMDPESEGASQALRDSSKADGKELAGTLDGEEKLFQTESSQRETAVLTESAAKGTLGADGHGTEAPGDTVVQEDSQETPVATSLGPDTQDLESEIHPQNLPSSPRAVWKEHRCSSSDDDTDVDVEGLRRRRGREPSSSQPVVPVDVEDQAKGEGIGGELGISLNMCFLGALVLLGLGILLFSGTLLEPETGPMEEAELQVFPETGPETELVETLGNRQDEIEHLQASSVPPDSVPSLQSMGFLLDKLAKENQDIRLLQAQLQAQKEELQSLLHQPKGLEEENARLREALQQGKTSHQALESELQQLRARLQGLEANCVRGVDGVCLNWGGDPQDGKATKEQGHKGQEPDPSLLEQHKQLEAEAKALRQELQRQWQLLGSVHWDLQRGLRDAGRGAPAHPGLAELGHMLAQTLQDLENQGINTGRSPNDSEAWHQKKPHTQSPREWGGKEKWRGGQRDQKAEHWKPRKEESGQERQRSWRDEGREHTGRWREDRLRADESGSRKDSKRQDPKVHPRKDGNSHSVERQKHSWGKDNSPDALSSWEELLRRKYRPPQGCSGVADCARQEGLALFGVELAPVRQQELASVLREYLSRLPWAGQLTKQLPLSPAYFGEDGIFRHDRLRFRDFVDALEDSLEEVALKQTGDDDEVDDFEDFVFGHFFGDKALKKRSRKKEKHSWNPRVVGPREEHSRHPHHYHQG | -1.692 | Down |
| sp¦P50172¦DHI1_MOUSE (protein, UniProt P50172 1-292, looked up) 11-beta-hydroxysteroid …: MAVMKNYLLPILVLFLAYYYYSTNEEFRPEMLQGKKVIVTGASKGIGREMAYHLSKMGAHVVLTARSEEGLQKVVSRCLELGAASAHYIAGTMEDMTFAEQFIVKAGKLMGGLDMLILNHITQTSLSLFHDDIHSVRRVMEVNFLSYVVMSTAALPMLKQSNGSIAVISSLAGKMTQPMIAPYSASKFALDGFFSTIRTELYITKVNVSITLCVLGLIDTETAMKEISGIINAQASPKEECALEIIKGTALRKSEVYYDKSPLTPILLGNPGRKIMEFFSLRYYNKDMFVSN | -1.766 | Down |
| sp¦Q9EPQ7¦STAR5_MOUSE (protein, UniProt Q9EPQ7 1-213, looked up) StAR-related lipid transfer …: MDPSWATQESEAVAEKVLRYRRDASGWKKCREGNGVSISWRPSEEFPGNLYRGEGILCGTPEEVWDCIKPVASGLREKWDDNVSSFEIVQSITDMLCVSRTSTPSAAMKLISPRDFVDLVLVKKYEDGTISSNATHVEHPLCPPKPGFVRGFNHPCGCFCEPLPGDPNKTNLVTFFQTDLSGYLPQSVVDSFFPRSMAEFYPNLQKAVRKFHH | -1.896 | Down |

Reference: article PMC11960969, “Mdga2 deficiency leads to an aberrant activation of BDNF/TrkB signaling that underlies autism-relevant synaptic and behavioral changes in mice” (PLOS Biology, 2025)
